Target: T1, CDH17蛋白细胞外段1~3结构域 (recombinant CDH17 extracellular domains 1-3) (human, UniProt Q12864 23-340, limits assumed)
T1 construct: domain: 细胞外段1~3 结构域; purified on Ni resin, so probably His-tagged, but the tag is not described; also called CDH17 1-3D; CDH17 1~3结构域蛋白
T1 sequence (looked up): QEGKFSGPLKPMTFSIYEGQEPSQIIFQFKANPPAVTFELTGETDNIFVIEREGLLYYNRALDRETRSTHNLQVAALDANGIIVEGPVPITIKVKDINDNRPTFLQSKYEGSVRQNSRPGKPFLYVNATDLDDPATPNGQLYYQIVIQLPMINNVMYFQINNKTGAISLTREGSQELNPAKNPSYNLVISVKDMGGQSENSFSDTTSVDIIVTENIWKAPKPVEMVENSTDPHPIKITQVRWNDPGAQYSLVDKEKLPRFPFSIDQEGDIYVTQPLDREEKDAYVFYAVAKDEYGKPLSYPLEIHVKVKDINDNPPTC
Assay: SPR (Biacore), purified antigen on the chip, nanobody as analyte (Fig. 5E)

B1: Nb193纳米抗体 (Nb193 nanobody) (VHH)
VHH: AVQLVESGGGLVQAGGSLRLSCVASGSTLERYAVYWYRQPPGKERELVAGIMRGGNINYADSVKGRFTISKDYAKNTLILQMNSLKPEDTAVYYCNAGGSRFGYWGQGTQVTVSS
notes: From a naive alpaca phage display nanobody library; Expressed in E. coli with HA tag and His tag, about 15 kDa; the tag piece is put last only for want of better; not shown: HA tag and His tag fused to the nanobody (pET-14B, E. coli)
Kd: 17.6 nM

From CN113999308A (SHENZHEN PEOPLES HOSPITAL, dated 2022)
